Paper PMC8744557, “Engineering the Catalytic Properties of Two-Domain Laccase from Streptomyces griseoflavus Ac-993” (International Journal of Molecular Sciences, 2021)
Substitutions are numbered along the chain they refer to. Numbers in names are those of the source.

B1: SgfSL (SgfSLwt) (Streptomyces griseoflavus) (protein)
chain: AGAAPAGGEVRRVTMYAERLAGGQMGYGLEKGKASIPGPLIELNEGDTLHVEFENTMDVPVSLHVHGLDYEISSDGTKQNKSHVEPGGTRTYTWRTHEPGRRADGTWRAGSAGYWHYHDHVVGTEHGTGGIRNGLYGPVIVRRKGDVLPDATHTIVFNDMTINNRPAHTGPNFEATVGDRVEIVMITHGEYYHTFHMHGHRWADNRTGMLTGPDDPSQVIDNKICGPADSFGFQIIAGEGVGAGAWMYHCHVQSHSDMGMVGLFLVKKPDGTIPGYDPQEHAH
notes: pET32-Xa/Lic, thioredoxin/His tail cut with factor Xa; E. coli BL21(DE3)/Rosetta; homotrimer; primers encode N-terminus AGAAPAGG and C-terminus PQEHAH
B2: SgfSL (SgfSLwt) (Streptomyces griseoflavus; M199A) (protein)
chain: B1 chain with M160A
notes: as for B1
B3: SgfSL (SgfSLwt) (Streptomyces griseoflavus; Y230A) (protein)
chain: B1 chain with Y191A
notes: as for B1
B4: SgfSL (SgfSLwt) (Streptomyces griseoflavus; M199G) (protein)
chain: B1 chain with M160G
notes: as for B1
B5: SgfSL (SgfSLwt) (Streptomyces griseoflavus; H165A/M199G) (protein)
chain: B1 chain with H126A, M160G
notes: as for B1
B6: SgfSL (SgfSLwt) (Streptomyces griseoflavus; M199G/R240H) (protein)
chain: B1 chain with M160G, R201H
notes: as for B1

Assays:
[1] = substrate: COc1cccc(OC)c1O; assay: purified protein; format: biochemical, Streptomyces griseoflavus; conditions: 50 mM Britton-Robinson buffer, O2 co-substrate
[2] = substrate: CCn1c(=NN=c2sc3cc(S(=O)(=O)O)ccc3n2CC)sc2cc(S(=O)(=O)O)ccc21; assay: purified protein; format: biochemical, Streptomyces griseoflavus; conditions: 50 mM Britton-Robinson buffer, O2 co-substrate

Protein	Km ([2]; pH 4.0, 30 °C)	kcat ([2]; pH 4.0, 30 °C)	kcat/Km ([2]; pH 4.0, 30 °C)	Km ([1]; pH 8.0, 30 °C)	kcat ([1]; pH 8.0, 30 °C)	kcat/Km ([1]; pH 8.0, 30 °C)	Km ([1]; pH 8.5, 30 °C)	kcat ([1]; pH 8.5, 30 °C)	kcat/Km ([1]; pH 8.5, 30 °C)	Km ([2]; pH 3.5, 30 °C)	kcat ([2]; pH 3.5, 30 °C)	kcat/Km ([2]; pH 3.5, 30 °C)	other results
B1	360 ± 70 µM	15 ± 1 s⁻¹	42000 M⁻¹ s⁻¹	–	–	–	–	–	–	–	–	–	Km ([1]; pH 9.0, 30 °C): 320 ± 80 µM; kcat ([1]; pH 9.0, 30 °C): 0.35 ± 0.02 s⁻¹; kcat/Km ([1]; pH 9.0, 30 °C): 1090 M⁻¹ s⁻¹
B2	320 ± 50 µM	33 ± 2 s⁻¹	102000 M⁻¹ s⁻¹	830 ± 80 µM	1.3 ± 0.05 s⁻¹	1550 M⁻¹ s⁻¹	–	–	–	–	–	–	–
B3	–	–	–	–	–	–	760 ± 30 µM	1.68 ± 0.07 s⁻¹	2220 M⁻¹ s⁻¹	170 ± 40 µM	29 ± 3 s⁻¹	169000 M⁻¹ s⁻¹	–
B4	200 ± 60 µM	45 ± 7 s⁻¹	226000 M⁻¹ s⁻¹	670 ± 120 µM	3.39 ± 0.17 s⁻¹	5070 M⁻¹ s⁻¹	–	–	–	–	–	–	–
B5	–	–	–	–	–	–	–	–	–	90 ± 10 µM	9 s⁻¹	95000 M⁻¹ s⁻¹	Km ([1]; pH 6.5, 30 °C): 280 ± 50 µM; kcat ([1]; pH 6.5, 30 °C): 0.31 ± 0.01 s⁻¹; kcat/Km ([1]; pH 6.5, 30 °C): 1110 M⁻¹ s⁻¹
B6	–	–	–	–	–	–	250 ± 20 µM	4.18 ± 0.09 s⁻¹	16500 M⁻¹ s⁻¹	100 ± 15 µM	20 ± 1 s⁻¹	203000 M⁻¹ s⁻¹	–
